# Data as given in patent US20160039904A1, “STABILIZED SINGLE HUMAN CD4 DOMAINS AND FUSION PROTEINS” (priority 2013, published 2016).
# Where two headings read alike, the source gives them in different places.
# Key:
# gp140Con-s (HIV-1) [1] = target: gp140Con-s (HIV-1)
# [2] = target: HIV-1 Env of isolate Bal (HIV-1); assay: cell-based or functional assay
# [3] = target: HIV-1 Env of isolate JRFL (HIV-1); assay: cell-based or functional assay
# [4] = target: HIV-1 Env of isolate 55815.EC3 (HIV-1); assay: cell-based or functional assay
# [5] = target: HIV-1 Env of isolate 57128.VRC18 (HIV-1); assay: cell-based or functional assay
# [6] = target: HIV-1 Env of isolate 89.6 (HIV-1); assay: cell-based or functional assay
# [7] = target: HIV-1 Env of isolate 92UG037.8 (HIV-1); assay: cell-based or functional assay
# [8] = target: HIV-1 Env of isolate A07412VRC12A (HIV-1); assay: cell-based or functional assay
# [9] = target: HIV-1 Env of isolate AD8 (HIV-1); assay: cell-based or functional assay
# [10] = target: HIV-1 Env of isolate BZ167.ec9 (HIV-1); assay: cell-based or functional assay
# [11] = target: HIV-1 Env of isolate Bal (HIV-1); assay: cell-based or functional assay; remark: listed apart in the source
# [12] = target: HIV-1 Env of isolate Bal.EC1 TC (HIV-1); assay: cell-based or functional assay
# [13] = target: HIV-1 Env of isolate CAM0015BBY.EC3 (HIV-1); assay: cell-based or functional assay
# [14] = target: HIV-1 Env of isolate CM240.EC1 (HIV-1); assay: cell-based or functional assay
# [15] = target: HIV-1 Env of isolate CM243 (HIV-1); assay: cell-based or functional assay
# [16] = target: HIV-1 Env of isolate GS-015.EC12 (HIV-1); assay: cell-based or functional assay
# [17] = target: HIV-1 Env of isolate GXC (HIV-1); assay: cell-based or functional assay
# [18] = target: HIV-1 Env of isolate GXE (HIV-1); assay: cell-based or functional assay
# [19] = target: HIV-1 Env of isolate IIIB (HIV-1); assay: cell-based or functional assay
# [20] = target: HIV-1 Env of isolate JRCSF (HIV-1) (UniProt P20871); assay: cell-based or functional assay
# [21] = target: HIV-1 Env of isolate JRFL (HIV-1); assay: cell-based or functional assay; remark: listed apart in the source
# [22] = target: HIV-1 Env of isolate KNH1088.EC5 (HIV-1); assay: cell-based or functional assay
# [23] = target: HIV-1 Env of isolate KNH1144.EC1 (HIV-1); assay: cell-based or functional assay
# [24] = target: HIV-1 Env of isolate N1 1046.e3 PV (HIV-1); assay: cell-based or functional assay
# [25] = target: HIV-1 Env of isolate NL4-3 (HIV-1); assay: cell-based or functional assay
# [26] = target: HIV-1 Env of isolate PBL286.VRC36aPV (HIV-1); assay: cell-based or functional assay
# [27] = target: HIV-1 Env of isolate R2 (HIV-1); assay: cell-based or functional assay
# [28] = target: HIV-1 Env of isolate Z2Z6 (HIV-1); assay: cell-based or functional assay
# gp140Con-s (HIV-1) [29] = assay: ELISA (OD 450 nm) on Cons gp140 (gp140Con-s), sCD4Fc titrated [A]
# HIV-1 Env of isolate JRCSF (HIV-1), sequence (P20871 32-848 limits assumed): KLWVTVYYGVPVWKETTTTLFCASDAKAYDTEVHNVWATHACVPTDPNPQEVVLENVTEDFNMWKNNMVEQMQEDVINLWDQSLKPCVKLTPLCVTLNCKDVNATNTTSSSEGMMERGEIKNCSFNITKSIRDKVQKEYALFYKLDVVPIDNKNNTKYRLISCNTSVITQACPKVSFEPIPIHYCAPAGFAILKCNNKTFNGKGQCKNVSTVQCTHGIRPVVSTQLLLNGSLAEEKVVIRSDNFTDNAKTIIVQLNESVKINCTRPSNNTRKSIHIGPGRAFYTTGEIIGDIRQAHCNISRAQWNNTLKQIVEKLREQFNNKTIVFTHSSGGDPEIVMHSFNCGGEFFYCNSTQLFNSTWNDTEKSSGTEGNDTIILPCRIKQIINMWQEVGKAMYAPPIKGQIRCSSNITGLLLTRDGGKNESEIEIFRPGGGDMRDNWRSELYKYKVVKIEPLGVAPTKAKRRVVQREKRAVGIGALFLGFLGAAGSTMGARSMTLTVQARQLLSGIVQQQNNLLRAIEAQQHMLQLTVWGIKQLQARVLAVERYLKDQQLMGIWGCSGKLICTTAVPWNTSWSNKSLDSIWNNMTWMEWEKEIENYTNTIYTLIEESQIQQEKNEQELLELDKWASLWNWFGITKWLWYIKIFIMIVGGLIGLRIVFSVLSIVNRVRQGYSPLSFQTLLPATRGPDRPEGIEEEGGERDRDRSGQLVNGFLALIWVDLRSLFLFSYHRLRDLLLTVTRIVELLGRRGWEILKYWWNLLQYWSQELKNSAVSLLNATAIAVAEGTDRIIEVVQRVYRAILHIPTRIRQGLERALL
substance,measurement,setting,value
D1D2 (receptor),EC50 (read off the curve) of the enhancement of m36h1Fc binding,gp140Con-s (HIV-1) [1],10 to 100 nM
4Dm2m (bispecific antibody),"IC50, neutralization of pseudotyped HIV-1",[2],0.12 nM
same,"IC90, neutralization of pseudotyped HIV-1",[2],0.36 nM
same,"IC50, neutralization of pseudotyped HIV-1",[3],0.06 nM
same,"IC90, neutralization of pseudotyped HIV-1",[3],0.29 nM
same,"IC50, neutralization in TZM-bl cell-based assay",[4],0.084 nM
same,"IC90, neutralization in TZM-bl cell-based assay",[4],0.61 nM
same,"IC50, neutralization in TZM-bl cell-based assay",[5],0.4 nM
same,"IC90, neutralization in TZM-bl cell-based assay",[5],2.8 nM
same,"IC50, neutralization of pseudotyped HIV-1",[6],< 0.021 nM
same,"IC90, neutralization of pseudotyped HIV-1",[6],< 0.021 nM
same,"IC50, neutralization of pseudotyped HIV-1",[7],0.051 nM
same,"IC90, neutralization of pseudotyped HIV-1",[7],0.45 nM
same,"IC50, neutralization in TZM-bl cell-based assay",[8],0.75 nM
same,"IC90, neutralization in TZM-bl cell-based assay",[8],5.7 nM
same,"IC50, neutralization of pseudotyped HIV-1",[9],0.13 nM
same,"IC90, neutralization of pseudotyped HIV-1",[9],0.74 nM
same,"IC50, neutralization in TZM-bl cell-based assay",[10],0.077 nM
same,"IC90, neutralization in TZM-bl cell-based assay",[10],0.5 nM
same,"IC50, inhibition of Env-mediated cell-cell fusion",[11],4.1 nM
same,"IC50, neutralization of pseudotyped HIV-1",[11],0.15 nM
same,"IC90, neutralization of pseudotyped HIV-1",[11],0.5 nM
same,"IC50, neutralization in TZM-bl cell-based assay",[12],0.057 nM
same,"IC90, neutralization in TZM-bl cell-based assay",[12],0.22 nM
same,"IC50, neutralization in TZM-bl cell-based assay",[13],0.72 nM
same,"IC90, neutralization in TZM-bl cell-based assay",[13],7.4 nM
same,"IC50, neutralization in TZM-bl cell-based assay",[14],0.45 nM
same,"IC90, neutralization in TZM-bl cell-based assay",[14],3.7 nM
same,"IC50, neutralization of pseudotyped HIV-1",[15],0.29 nM
same,"IC90, neutralization of pseudotyped HIV-1",[15],1.2 nM
same,"IC50, neutralization in TZM-bl cell-based assay",[16],0.022 nM
same,"IC90, neutralization in TZM-bl cell-based assay",[16],0.17 nM
same,"IC50, neutralization of pseudotyped HIV-1",[17],0.61 nM
same,"IC90, neutralization of pseudotyped HIV-1",[17],4 nM
same,"IC50, neutralization of pseudotyped HIV-1",[18],0.83 nM
same,"IC90, neutralization of pseudotyped HIV-1",[18],8.2 nM
same,"IC50, neutralization of pseudotyped HIV-1",[19],0.037 nM
same,"IC90, neutralization of pseudotyped HIV-1",[19],0.1 nM
same,"IC50, neutralization of pseudotyped HIV-1",[20],0.29 nM
same,"IC90, neutralization of pseudotyped HIV-1",[20],3 nM
same,"IC50, inhibition of Env-mediated cell-cell fusion",[21],3.6 nM
same,"IC50, neutralization of pseudotyped HIV-1",[21],0.14 nM
same,"IC90, inhibition of Env-mediated cell-cell fusion",[21],8.8 nM
same,"IC90, neutralization of pseudotyped HIV-1",[21],0.39 nM
same,"IC50, neutralization in TZM-bl cell-based assay",[22],0.48 nM
same,"IC50, neutralization in TZM-bl cell-based assay",[23],0.081 nM
same,"IC90, neutralization in TZM-bl cell-based assay",[23],1 nM
same,"IC90, neutralization in TZM-bl cell-based assay",[24],27 nM
same,"IC50, neutralization of pseudotyped HIV-1",[25],0.094 nM
same,"IC90, neutralization of pseudotyped HIV-1",[25],0.15 nM
same,"IC50, neutralization in TZM-bl cell-based assay",[26],2 nM
same,"IC50, neutralization of pseudotyped HIV-1",[27],0.028 nM
same,"IC90, neutralization of pseudotyped HIV-1",[27],0.43 nM
same,"IC50, neutralization of pseudotyped HIV-1",[28],0.14 nM
same,"IC90, neutralization of pseudotyped HIV-1",[28],1.1 nM
VRC01 (antibody),"IC50, neutralization in TZM-bl cell-based assay",[4],0.33 nM
same,"IC90, neutralization in TZM-bl cell-based assay",[4],2.6 nM
same,"IC50, neutralization in TZM-bl cell-based assay",[5],> 167 nM
same,"IC90, neutralization in TZM-bl cell-based assay",[5],> 167 nM
same,"IC50, neutralization of pseudotyped HIV-1",[6],0.37 nM
same,"IC50, neutralization of pseudotyped HIV-1",[7],0.33 nM
same,"IC90, neutralization of pseudotyped HIV-1",[7],3.8 nM
same,"IC50, neutralization in TZM-bl cell-based assay",[8],1.3 nM
same,"IC90, neutralization in TZM-bl cell-based assay",[8],6 nM
same,"IC50, neutralization of pseudotyped HIV-1",[9],0.36 nM
same,"IC90, neutralization of pseudotyped HIV-1",[9],4.3 nM
same,"IC90, neutralization in TZM-bl cell-based assay",[10],31 nM
same,"IC50, inhibition of Env-mediated cell-cell fusion",[11],2.6 nM
same,"IC50, neutralization of pseudotyped HIV-1",[11],0.11 nM
same,"IC90, inhibition of Env-mediated cell-cell fusion",[11],24 nM
same,"IC90, neutralization of pseudotyped HIV-1",[11],0.56 nM
same,"IC50, neutralization in TZM-bl cell-based assay",[12],0.39 nM
same,"IC90, neutralization in TZM-bl cell-based assay",[12],5.2 nM
same,"IC50, neutralization in TZM-bl cell-based assay",[13],21 nM
same,"IC90, neutralization in TZM-bl cell-based assay",[13],> 167 nM
same,"IC50, neutralization in TZM-bl cell-based assay",[14],0.66 nM
same,"IC50, neutralization of pseudotyped HIV-1",[15],0.53 nM
same,"IC90, neutralization of pseudotyped HIV-1",[15],9.5 nM
same,"IC50, neutralization in TZM-bl cell-based assay",[16],> 167 nM
same,"IC90, neutralization in TZM-bl cell-based assay",[16],> 167 nM
same,"IC90, neutralization of pseudotyped HIV-1",[17],6.6 nM
same,"IC50, neutralization of pseudotyped HIV-1",[18],2 nM
same,"IC90, neutralization of pseudotyped HIV-1",[18],26 nM
same,"IC50, neutralization of pseudotyped HIV-1",[19],0.26 nM
same,"IC90, neutralization of pseudotyped HIV-1",[19],0.83 nM
same,"IC50, neutralization of pseudotyped HIV-1",[20],0.28 nM
same,"IC90, neutralization of pseudotyped HIV-1",[20],5.6 nM
same,"IC50, neutralization of pseudotyped HIV-1",[21],0.31 nM
same,"IC90, neutralization of pseudotyped HIV-1",[21],0.82 nM
same,"IC50, neutralization in TZM-bl cell-based assay",[22],3 nM
same,"IC90, neutralization in TZM-bl cell-based assay",[23],9.5 nM
same,"IC50, neutralization in TZM-bl cell-based assay",[24],4.2 nM
same,"IC50, neutralization of pseudotyped HIV-1",[25],0.25 nM
same,"IC90, neutralization of pseudotyped HIV-1",[25],2.6 nM
same,"IC90, neutralization in TZM-bl cell-based assay",[26],10 nM
same,"IC50, neutralization of pseudotyped HIV-1",[27],0.34 nM
same,"IC90, neutralization of pseudotyped HIV-1",[27],4.4 nM
same,"IC50, neutralization of pseudotyped HIV-1",[28],0.11 nM
same,"IC90, neutralization of pseudotyped HIV-1",[28],0.85 nM
D1D2mFc (from UniProt P01730 26-203) (Fc fusion),EC50 (read off the curve),gp140Con-s (HIV-1) [29],0.3 nM
